From US20250270331A1 (MERUS N V, published 2025)

Key:
[1] = target: T1, Human TGF-βRII-Fc (R&D; cat. no. 341-BR) (human, UniProt P37173 23-159); test: ligand blocking ELISA: TGF-βRII-Fc on coated TGF-β1, antibody titrated (OD450)
T1 construct: Bought construct; not shown: Fc part of the bought fusion

D119A = target: T2, D119A; test: shotgun mutagenesis alanine scan, mean fluorescence of the mutant clone in % of wildtype
T2 construct: also called human TGF-βRII with D119A (alanine scan clone)
T2 receptor: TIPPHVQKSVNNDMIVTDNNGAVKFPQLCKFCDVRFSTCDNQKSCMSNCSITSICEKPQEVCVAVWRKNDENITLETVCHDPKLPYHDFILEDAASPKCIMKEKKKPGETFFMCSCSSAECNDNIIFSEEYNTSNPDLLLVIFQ

T52A = target: T3, T52A; test: as above
T3 construct: also called human TGF-βRII with T52A (alanine scan clone)
T3 receptor: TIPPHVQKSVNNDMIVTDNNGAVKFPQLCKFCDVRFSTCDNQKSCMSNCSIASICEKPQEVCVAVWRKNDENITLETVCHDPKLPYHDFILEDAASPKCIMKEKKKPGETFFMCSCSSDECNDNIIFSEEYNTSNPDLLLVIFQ

F25A = target: T4, F25A; test: as above
T4 construct: also called human TGF-βRII with F25A (alanine scan clone)
T4 receptor: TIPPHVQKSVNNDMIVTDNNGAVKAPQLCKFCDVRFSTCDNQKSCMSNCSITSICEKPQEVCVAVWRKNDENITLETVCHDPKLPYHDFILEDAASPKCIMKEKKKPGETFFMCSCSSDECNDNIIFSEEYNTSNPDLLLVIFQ

E120A = target: T5, E120A; test: as above
T5 construct: also called human TGF-βRII with E120A (alanine scan clone)
T5 receptor: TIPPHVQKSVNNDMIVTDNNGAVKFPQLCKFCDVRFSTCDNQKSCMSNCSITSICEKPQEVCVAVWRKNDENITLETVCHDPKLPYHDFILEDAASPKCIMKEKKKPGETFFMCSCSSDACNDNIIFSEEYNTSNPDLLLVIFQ

L28A = target: T6, L28A; test: as above
T6 construct: L28 is named only on the sheet; also called human TGF-βRII with L28A (alanine scan clone)
T6 receptor: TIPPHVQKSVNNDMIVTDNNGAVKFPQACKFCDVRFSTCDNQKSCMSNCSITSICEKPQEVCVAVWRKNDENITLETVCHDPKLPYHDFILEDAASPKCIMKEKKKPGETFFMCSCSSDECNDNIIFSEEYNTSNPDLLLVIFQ

I54A = target: T7, I54A; test: as above
T7 construct: also called human TGF-βRII with I54A (alanine scan clone)
T7 receptor: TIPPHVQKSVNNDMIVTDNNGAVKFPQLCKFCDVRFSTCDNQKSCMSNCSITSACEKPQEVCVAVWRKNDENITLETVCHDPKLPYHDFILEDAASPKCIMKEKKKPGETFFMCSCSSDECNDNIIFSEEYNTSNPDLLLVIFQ

[2] = target: T1, Human TGF-βRII-Fc (R&D; cat. no. 341-BR); test: ELISA; blocking of TGF-βRII-Fc binding to coated TGF-β1

B1: antibody comprising heavy chain variable regions having SEQ ID NO: 94 (antibody, V domains shown)
VH: EVQLVESGGGLVQPGGSLRLSCAASGFTFSRYAMSWVRQAPGKGLEWVSSINTSGGNTFYADSVKGRFTISRDNSKNTLYLQMNSLRAEDTAIYYCAKGIAATGKNYFDPWGQGTLVTVSS
VL: not shown
notes: IgG expressed in 293T freestyle cells
IC50 (read off the curve) [1]: ~0.03 mg/L

B2: antibody comprising heavy chain variable regions having SEQ ID NO: 93 (antibody, V domains shown)
VH: EVQLVESGGDLVKPGGSLRLSCAASGFTFSNAWMSWVRQAPGKGLEWVGRVKTTVSGGTTDYAAAVKGRFTISRDDSKNTLYLQMNSLKTEDTAIYYCTIDLRDYWGQGTLVTVSS
VL: not shown
notes: From the second round of immunization; tested as bivalent IgG
Binding Reactivity (% WT) (D119A): 2.8 % WT
Binding Reactivity (% WT) (T52A): 23.4 % WT
Binding Reactivity (% WT) (F25A): 2.28 % WT
Binding Reactivity (% WT) (E120A): 91.5 % WT
Binding Reactivity (% WT) (L28A): 22.8 % WT
Binding Reactivity (% WT) (I54A): 24 % WT
IC50 [2]: 0.155 mg/L
